From patent publication US20220396635A1 (UNIVERSIT T STUTTGART, published 2022)

How the values were obtained:
[1] = target: T1, FAP (UniProt Q12884 1-760, limits assumed); assay: flow cytometry, serial dilution on HT1080-FAP cells (FAP-expressing), PE anti-human Fc detection
T1 construct: whole, on cells; also called FAP on HT1080-FAP cells
Description: (§1) Binding of trivalent, bispecific fusion proteins to FAP-expressing (HT1080-FAP) cell lines was analyzed by flow cytometry. 2×10⁵ cells/well were incubated with a serial dilution of trivalent, bispecific antibodies for 1 h at 4° C. followed by detection using a PE-conjugated anti-human Fc antibody (Jackson ImmunoResearch Laboratories Inc).

[2] = target: T2, CEA (UniProt P06731 35-685); assay: cell-based or functional assay
T2 sequence (looked up): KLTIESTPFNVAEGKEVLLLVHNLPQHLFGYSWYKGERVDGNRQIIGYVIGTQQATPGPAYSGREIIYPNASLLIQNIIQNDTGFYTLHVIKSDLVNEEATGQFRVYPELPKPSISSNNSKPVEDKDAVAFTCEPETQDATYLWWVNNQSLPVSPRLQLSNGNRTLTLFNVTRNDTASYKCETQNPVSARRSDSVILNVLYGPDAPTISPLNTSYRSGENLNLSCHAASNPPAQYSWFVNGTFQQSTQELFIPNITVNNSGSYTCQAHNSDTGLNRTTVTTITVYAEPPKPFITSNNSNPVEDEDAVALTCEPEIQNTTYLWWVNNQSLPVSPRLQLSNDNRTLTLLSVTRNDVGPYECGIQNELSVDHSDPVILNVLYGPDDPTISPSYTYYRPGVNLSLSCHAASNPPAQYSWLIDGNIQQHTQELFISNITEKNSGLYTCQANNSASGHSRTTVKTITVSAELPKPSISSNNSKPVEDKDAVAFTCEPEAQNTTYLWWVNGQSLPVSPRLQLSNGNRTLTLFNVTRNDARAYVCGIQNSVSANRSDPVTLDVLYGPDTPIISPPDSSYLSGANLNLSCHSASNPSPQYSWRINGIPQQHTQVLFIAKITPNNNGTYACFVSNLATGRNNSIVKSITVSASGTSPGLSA

[3] = target: T2, CEA; assay: cell-based or functional assay; remark: listed apart in the source
[4] = target: T3, CD3 (UniProt P07766 23-207); assay: flow cytometry, serial dilution on Jurkat cells (CD3-expressing), PE anti-human Fc detection
T3 construct: whole, on cells; on cells it stands in the TCR/CD3 complex; also called CD3 on Jurkat cells
Description: as §1, with “CEA-expressing (LIM1215) and CD3-expressing (Jurkat)” for “FAP-expressing (HT1080-FAP)”, “Inc). […] Regarding the CEA-expressing cell line LIM1215, the trivalent, bispecific antibodies bound with EC₅₀ values in the nanomolar range (FIG. 16A) (Table 9).” for “Inc).”

[5] = target: T2, CEA; assay: flow cytometry, serial dilution on LIM1215 cells (CEA-expressing), PE anti-human Fc detection
Description: as §1, with “CEA-expressing (LIM1215) and CD3-expressing (Jurkat)” for “FAP-expressing (HT1080-FAP)”, “Inc). […] Regarding the CEA-expressing cell line LIM1215, the trivalent, bispecific antibodies bound with EC₅₀ values in the nanomolar range (FIG. 16A) (Table 9).” for “Inc).”

B1: scDb/scFv-Fc (1-1)+2, trivalent bispecific anti-FAPxanti-CD3 (bispecific antibody)
chain 1: QVQLVQSGAEVKKPGASVKVSCKASGYTFTENIIHWVRQAPGQGLEWMGWFHPGSGSIKYNEKFKDRVTMTADTSTSTVYMELSSLRSEDTAVYYCARHGGTGRGAMDYWGQGTLVTVSSGGGGSDIQMTQSPSSLSASVGDRVTITCRASKSVSTSAYSYMHWYQQKPGKAPKLLIYLASNLESGVPSRFSGSGSGTDFTLTISSLQPEDFATYYCQHSRELPYTFGQGTKLEIKRGGGGSGGGGSQVQLVQSGAEVKKPGASVKVSCKASGYTFTENIIHWVRQAPGQGLEWMGWFHPGSGSIKYNEKFKDRVTMTADTSTSTVYMELSSLRSEDTAVYYCARHGGTGRGAMDYWGQGTLVTVGGGGSDIQMTQSPSSLSASVGDRVTITCRASKSVSTSAYSYMHWYQQKPGKAPKLLIYLASNLESGVPSRFSGSGSGTDFTLTISSLQPEDFATYYCQHSRELPYTFGQGTKLEIKRAAADKTHTCPPCPAPPVAGPSVFLFPPKPKDTLMISRTPEVTCVVVDVSHEDPEVKFNWYVDGVEVHNAKTKPREEQYNSTYRVVSVLTVLHQDWLNGKEYKCKVSNKGLPSSIEKTISKAKGQPREPQVCTLPPSRDELTKNQVSLSCAVKGFYPSDIAVEWESNGQPENNYKTTPPVLDSDGSFFLVSKLTVDKSRWQQGNVFSCSVMHEALHNHYTQKSLSLSPGK
chain 2: DIQMTQSPSSLSASVGDRVTITCRASQDIRNYLNWYQQKPGKAPKLLIYYTSRLHSGVPSRFSGSGSGTDFTFTISSLQPEDIATYYCQQGNTLPWTFGQGTKLEIKRGGGGSGGGGSGGGGSQVQLVQSGAEVKKPGSSVKVSCKASGGTFSGYTMNWVRQAPGQGLEWMGLINPYKGVSTYNGKFKDRVTITADKSTSTAYMELSSLRSEDTAVYYCARSGYYGDSDWYFDVWGQGTLVTVSSAAADKTHTCPPCPAPPVAGPSVFLFPPKPKDTLMISRTPEVTCVVVDVSHEDPEVKFNWYVDGVEVHNAKTKPREEQYNSTYRVVSVLTVLHQDWLNGKEYKCKVSNKGLPSSIEKTISKAKGQPREPQVYTLPPCRDELTKNQVSLWCLVKGFYPSDIAVEWESNGQPENNYKTTPPVLDSDGSFFLYSKLTVDKSRWQQGNVFSCSVMHEALHNHYTQKSLSLSPGK
notes: also called scDbFAPxFAP-Fc(hole)Δab + scFvhuU3-Fc(knob)Δab
Binder B1 has an EC50 [1] of 1 nM.

B2: scDb/Fab-Fc (2-1)+1, trivalent bispecific anti-FAPxanti-CD3 (bispecific antibody, human IgG1, kappa)
chain: QVQLVQSGAEVKKPGSSVKVSCKASGGTFSGYTMNWVRQAPGQGLEWMGLINPYKGVSTYNGKFKDRVTITADKSTSTAYMELSSLRSEDTAVYYCARSGYYGDSDWYFDVWGQGTLVTVSSGGGGSDIQMTQSPSSLSASVGDRVTITCRASKSVSTSAYSYMHWYQQKPGKAPKLLIYLASNLESGVPSRFSGSGSGTDFTLTISSLQPEDFATYYCQHSRELPYTFGQGTKLEIKRGGGGSGGGGSQVQLVQSGAEVKKPGASVKVSCKASGYTFTENIIHWVRQAPGQGLEWMGWFHPGSGSIKYNEKFKDRVTMTADTSTSTVYMELSSLRSEDTAVYYCARHGGTGRGAMDYWGQGTLVTVGGGGSDIQMTQSPSSLSASVGDRVTITCRASQDIRNYLNWYQQKPGKAPKLLIYYTSRLHSGVPSRFSGSGSGTDFTFTISSLQPEDIATYYCQQGNTLPWTFGQGTKLEIKRAAADKTHTCPPCPAPPVAGPSVFLFPPKPKDTLMISRTPEVTCVVVDVSHEDPEVKFNWYVDGVEVHNAKTKPREEQYNSTYRVVSVLTVLHQDWLNGKEYKCKVSNKGLPSSIEKTISKAKGQPREPQVCTLPPSRDELTKNQVSLSCAVKGFYPSDIAVEWESNGQPENNYKTTPPVLDSDGSFFLVSKLTVDKSRWQQGNVFSCSVMHEALHNHYTQKSLSLSPGK
heavy: QVQLVQSGAEVKKPGASVKVSCKASGYTFTENIIHWVRQAPGQGLEWMGWFHPGSGSIKYNEKFKDRVTMTADTSTSTVYMELSSLRSEDTAVYYCARHGGTGRGAMDYWGQGTLVTVSSASTKGPSVFPLAPSSKSTSGGTAALGCLVKDYFPEPVTVSWNSGALTSGVHTFPAVLQSSGLYSLSSVVTVPSSSLGTQTYICNVNHKPSNTKVDKKVEPKSCDKTHTCPPCPAPPVAGPSVFLFPPKPKDTLMISRTPEVTCVVVDVSHEDPEVKFNWYVDGVEVHNAKTKPREEQYNSTYRVVSVLTVLHQDWLNGKEYKCKVSNKGLPSSIEKTISKAKGQPREPQVYTLPPCRDELTKNQVSLWCLVKGFYPSDIAVEWESNGQPENNYKTTPPVLDSDGSFFLYSKLTVDKSRWQQGNVFSCSVMHEALHNHYTQKSLSLSPGK
light: DIQMTQSPSSLSASVGDRVTITCRASKSVSTSAYSYMHWYQQKPGKAPKLLIYLASNLESGVPSRFSGSGSGTDFTLTISSLQPEDFATYYCQHSRELPYTFGQGTKLEIKRRTVAAPSVFIFPPSDEQLKSGTASVVCLLNNFYPREAKVQWKVDNALQSGNSQESVTEQDSKDSTYSLSSTLTLSKADYEKHKVYACEVTHQGLSSPVTKSFNRGEC
notes: also called scDbCD3xFAP-Fc(hole)Δab + VHFAP-CH1-Fc(knob)Δab + VLFAP-CLκ
B2 was tested, and the EC50 [1] was 0.4 nM.

B3: scDb/scFv-Fc (1-2)+1, trivalent bispecific anti-CEAxanti-CD3 (bispecific antibody)
chain 1: QVKLQQSGAELVRSGTSVKLSCTASGFNIKDSYMHWLRQGPEQGLEWIGWIDPENGDTEYAPKFQGKATFTTDTSSNTAYLQLSSLTSEDTAVYYCNEGTPTGPYYFDYWGQGTTVTVSSGGGGSDIQMTQSPSSLSASVGDRVTITCRASQDIRNYLNWYQQKPGKAPKLLIYYTSRLHSGVPSRFSGSGSGTDFTFTISSLQPEDIATYYCQQGNTLPWTFGQGTKLEIKRGGGGSGGGGSGGGGSQVQLVQSGAEVKKPGSSVKVSCKASGGTFSGYTMNWVRQAPGQGLEWMGLINPYKGVSTYNGKFKDRVTITADKSTSTAYMELSSLRSEDTAVYYCARSGYYGDSDWYFDVWGQGTLVTVSSGGGGSDIELTQSPAIMSASPGEKVTITCSASSSVSYMHWFQQKPGTSPKLWIYSTSNLASGVPARFSGSGSGTSYSLTISRMEAEDAATYYCQQRSSYPLTFGAGTKLELKRAAADKTHTCPPCPAPPVAGPSVFLFPPKPKDTLMISRTPEVTCVVVDVSHEDPEVKFNWYVDGVEVHNAKTKPREEQYNSTYRVVSVLTVLHQDWLNGKEYKCKVSNKGLPSSIEKTISKAKGQPREPQVCTLPPSRDELTKNQVSLSCAVKGFYPSDIAVEWESNGQPENNYKTTPPVLDSDGSFFLVSKLTVDKSRWQQGNVFSCSVMHEALHNHYTQKSLSLSPGK
chain 2: QVKLQQSGAELVRSGTSVKLSCTASGFNIKDSYMHWLRQGPEQGLEWIGWIDPENGDTEYAPKFQGKATFTTDTSSNTAYLQLSSLTSEDTAVYYCNEGTPTGPYYFDYWGQGTTVTVSSGGGGSGGGGSGGGGSDIELTQSPAIMSASPGEKVTITCSASSSVSYMHWFQQKPGTSPKLWIYSTSNLASGVPARFSGSGSGTSYSLTISRMEAEDAATYYCQQRSSYPLTFGAGTKLELKRAAADKTHTCPPCPAPPVAGPSVFLFPPKPKDTLMISRTPEVTCVVVDVSHEDPEVKFNWYVDGVEVHNAKTKPREEQYNSTYRVVSVLTVLHQDWLNGKEYKCKVSNKGLPSSIEKTISKAKGQPREPQVYTLPPCRDELTKNQVSLWCLVKGFYPSDIAVEWESNGQPENNYKTTPPVLDSDGSFFLYSKLTVDKSRWQQGNVFSCSVMHEALHNHYTQKSLSLSPGK
notes: also called scDbCEAxhuU3-Fc(hole)Δab + scFvCEA-Fc(knob)Δab
For B3, the “EC50 of PBMC cytotoxicity on LIM1215 cells, E:T 10:1” value [2] was 0.5 nM, the “EC50 of IL-2 release, PBMCs co-cultured with LIM1215 cells” value [3] was 1.4 nM and the EC50 [4] was 7.7 nM. It also gave an EC50 [5] of 1.6 nM.
